The values below come from publication PMC3779284.

Read-outs that look alike come from different tables or passages of the source.

For orientation: Kd means the free concentration of one partner at which half of the binding sites on the other are occupied at equilibrium, for simple one-to-one binding. Read a low Kd as tighter binding.

Test [1] has as its target Calmodulin fluorescently labelled with Alexa Fluor 488 (UniProt P0DP23). The test can be described thus: AUC.
For test [2] the target is unchanged. The test can be described thus: AUC. This is another data set of the same source.

In the case of nNOSred R753A (domain or fragment), in test [1], the Kd turned out to be 468 nM and the percent free calmodulin at 1:0.5 CaM:nNOSred was determined as 64.6%.

Take “nNOSred wt (rat neuronal nitric oxide synthase reductase domain, wild type) (domain or fragment)”: the percent free calmodulin at 1:0.5 CaM:nNOSred came to 40% in test [2] and 30.9% in test [1]. For the same substance, in test [1], the Kd came out at 167 nM.
